Experimental data taken from patent publication US20220332804A1 (CSL INNOVATION, published 2022).
Changes are numbered by the printed parent chain.

T1: human C2 Y328A (human, UniProt P06681 21-752)
T1 sequence: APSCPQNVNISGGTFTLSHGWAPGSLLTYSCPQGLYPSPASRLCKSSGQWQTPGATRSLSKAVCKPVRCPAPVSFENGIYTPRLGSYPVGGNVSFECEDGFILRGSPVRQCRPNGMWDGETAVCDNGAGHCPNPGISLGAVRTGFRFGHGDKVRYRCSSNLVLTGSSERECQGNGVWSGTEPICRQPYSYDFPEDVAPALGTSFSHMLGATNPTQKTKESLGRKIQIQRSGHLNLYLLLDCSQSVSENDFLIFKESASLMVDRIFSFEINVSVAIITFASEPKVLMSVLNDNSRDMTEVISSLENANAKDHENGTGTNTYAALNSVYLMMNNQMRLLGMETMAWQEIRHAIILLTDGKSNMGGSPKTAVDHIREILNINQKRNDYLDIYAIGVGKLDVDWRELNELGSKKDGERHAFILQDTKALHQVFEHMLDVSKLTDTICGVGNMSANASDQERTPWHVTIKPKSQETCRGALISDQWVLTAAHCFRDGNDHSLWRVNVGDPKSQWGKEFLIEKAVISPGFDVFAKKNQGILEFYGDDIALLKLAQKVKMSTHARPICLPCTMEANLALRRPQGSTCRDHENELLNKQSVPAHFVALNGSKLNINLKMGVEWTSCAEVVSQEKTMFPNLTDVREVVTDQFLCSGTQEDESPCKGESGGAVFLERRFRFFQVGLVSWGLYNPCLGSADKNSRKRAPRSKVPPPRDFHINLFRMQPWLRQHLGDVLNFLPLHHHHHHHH

T2: human C2 E476A (human, UniProt P06681 21-752)
T2 sequence: T1 sequence with A308Y, E456A

T3: human C2 L271A (human, UniProt P06681 21-752)
T3 sequence: T1 sequence with L251A, A308Y

T4: human C2 T317A (human, UniProt P06681 21-752)
T4 sequence: T1 sequence with T297A, A308Y

B1: RF16-226 (antibody, human IgG4 S228P, lambda)
heavy: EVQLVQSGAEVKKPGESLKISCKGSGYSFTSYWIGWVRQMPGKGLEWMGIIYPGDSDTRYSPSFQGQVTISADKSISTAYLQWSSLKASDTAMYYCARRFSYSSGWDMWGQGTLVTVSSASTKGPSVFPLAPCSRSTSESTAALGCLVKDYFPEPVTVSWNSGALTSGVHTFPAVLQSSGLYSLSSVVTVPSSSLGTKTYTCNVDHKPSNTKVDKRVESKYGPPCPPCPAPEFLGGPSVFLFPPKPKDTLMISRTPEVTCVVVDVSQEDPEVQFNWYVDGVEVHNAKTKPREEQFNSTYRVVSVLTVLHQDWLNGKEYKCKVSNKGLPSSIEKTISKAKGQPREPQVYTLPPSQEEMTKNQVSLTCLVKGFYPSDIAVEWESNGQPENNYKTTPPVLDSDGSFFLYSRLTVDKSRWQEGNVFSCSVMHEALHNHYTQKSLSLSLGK
light: SYELTQPPSVSVSPGQTARITCSGDALTSKYVAWYQQKSGLAPLLVIYEDTRRPSGIPAKFSGSSSGSVATLTISGAHGDDEADYYCYSTDASGHQRVFGGGTKLTVLSQPKAAPSVTLFPPSSEELQANKATLVCLISDFYPGAVTVAWKADGSPVKAGVETTKPSKQSNNKYAASSYLSLTPEQWKSHRSYSCQVTHEGSTVEKTVAPTECS
notes: pH-dependent anti-C2 antibody from a phage display library; also called WT
B2: RF16-242 (antibody, human IgG4 S228P, lambda, V domains shown)
VH: EVQLLQSGAEVKKPGESLKISCKGSGYSFTSYWIGWVRQMPGKGLEWMGIIYPGDSDTRYSPSFQGQVTISADKSISTAYLQWSSLKASDTAMYYCARRGHYGDYFDYWGQGTLVTVSS
VL: SYELTQPPSVSVSPGQTARITCSGDALPKKYAYWYHQKSGQAPVLVIYEDRRRPSEIPERFSGSSSGTMATLTITGAQVEDEGVYFCYSRDRAGNQRVFGGGTQLTVLG
notes: pH-dependent anti-C2 antibody from a phage display library

Experiments:
Assay in all cases: SPR, KD relative to WT C2
human C2 Y328A = target: T1, human C2 Y328A
human C2 E476A = target: T2, human C2 E476A
human C2 L271A = target: T3, human C2 L271A
human C2 T317A = target: T4, human C2 T317A;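 also: biacore SPR at 37 °C, anti-C2 mAbs captured on anti-human IgG chips with alanine or serine point mutants of C2 as analyte, KD from 1:1 fit compared with wild-type C2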
Procedure: Surface plasmon resonance (SPR, Biacore) was used for all binding affinity analyses. In brief, goat anti-human IgG was directly immobilised onto the carboxymethyl dextran surface of CM5 sensorchips to approximately 12,000 RU using standard NHS/EDC chemistry at pH 5. The immobilised antibody surface was pre-conditioned with ten injections of polyclonal human IgG (Privigen 60 s) prepared at 1 μg/mL. Ligands (anti-C2 mAbs) were captured at the beginning of each cycle as described below. An adjacent spot or flow cell in which only Polyclonal IgG was capture was used as a reference surface. The goat anti-human IgG Fc antibody surface was regenerate in 100 mM H3PO4, injected for 45 seconds at the end of each cycle. Experiments were performed at 37° C. and the flow rate of each experiment was kept constant at 30 μL/min.
Sensogram data was double-referenced against a reference anti-IgG surface (i.e. minus anti-C2 mAb) and blank buffer injections obtained within each experiment. The binding data was fit to 1:1 (kinetic or steady-state) model using local Rmax and null refraction index (RI=0) when appropriate. Buffers and solutions were filtered (0.22 μm) prior to use.

Row | Binder | Fold diff (human C2 Y328A) [fold] | Fold diff (human C2 E476A) [fold] | Fold diff (human C2 L271A) [fold] | Fold diff (human C2 T317A) [fold]
1 | B1 | 8 | 2 | 1 | 
2 | B2 |  |  |  | 1
